Measured values as given in patent US6867010.

Experiments:
[1] = molecular target: base-linker-oligodeoxynucleotide conjugate (compound 8); experiment: phage without acid peptide incubated with biotinylated oligodeoxynucleotide-peptide B conjugate, captured on streptavidin beads, phage titering
[2] = molecular target: base-linker-pTp conjugate (compound 9); experiment: phage crosslinked to biotinylated base-linker-pTp conjugate, captured on streptavidin beads, titered by direct infection with the beads
[3] = molecular target: base-linker-oligodeoxynucleotide conjugate (compound 8); experiment: phage crosslinked to biotinylated base-linker-oligodeoxynucleotide conjugate in EDTA, captured on streptavidin beads, titered by direct infection with the beads
[4] = molecular target: base-linker-oligodeoxynucleotide conjugate (compound 8); experiment: phage crosslinked to biotinylated base-linker-oligodeoxynucleotide conjugate, captured on streptavidin beads, titered after DNase I release

Substance | percent of phage immobilized [1] [%] | efficiency of phage immobilization [2] [%] | efficiency of immobilization [3] [%] | true immobilization efficiency [4] [%]
wildtype pIII protein on phage produced with wildtype M13K07 helper phage (from UniProt P69168 19-424) | 0.3 | – | – | –
acid peptide A-pIII fusion displayed on acid helper phage (M13K07 helper phage with the acidic peptide A and a C-terminal GGC extension inserted at the N-terminus of pIII) (from UniProt P69168 1-3) | – | 10 | 10 | 80
